# According to PMC11098746 (2024):
# No end group written: not given here.
# B1: 3 (protein)
# chain: MGFHIQRYIAMMGRGINPKTWKKLWVDSKNKQIIHVYNDVAEFMNNQIAQVVRVYQYRY
# modifications: also: human Fc-tagged dimer
# B2: 53 (protein)
# chain: EKLISKLTKNGDLDLVLLYDIGFVDDSENDHMNSLENIAELGKNLLVRDNKNINLAYITYDDINVDLRIESRNNIGVDNENNYDKDNNAAYKFGSDKNIEEFRNVVLDTKLKSSYKNSAHLKALNYVGLKHFYNSEKESVKMVVMFMNTDGDYNNNNNNNMNNIASSYSAELNLVHYLFDRKNIILNIITRVAFKNYCHYIQQIGSNTNELLKCVLKNSFYNIAALTYEIIKYYDDISINAICHGWSEWSPCSVTCNMGYHFSKRDSLGYIKNSKSGLYKRKGRSCLEQRNLIIQECFNTACDHSLDICDNIYMDISILLDDSSNIALESWNKYIIPFVRKFITHFNINNNQINFALTTYSSHTYNWFNFANVLSKDKDKLLTYLEFFKFNFGSSTKNIKQAIQYMNDHVLNTNYRRNDAKKIMLIINSGEIDNKAVTSVPDIIQRLKDTHNVQVYSICINNQNVKNCRKLSTHSMEKYGSNFAFSLPNAADLRYNVLGIQKSICRNVAGAFRRKLRSGNKDDEDKKDDEYKEEDEYKEEDEYKEEDEYKEEDEYKEEDEYKEEDEYKEEDEDMKKDEDMKKDEDMKKDEYKKGYKDYKKDQSKNDNKAEERKDEGNIATSNEHHASEKTDDEDIITQYNEEDRHDNSNDNIIIDDEPVGQDNSIFKNENFFWGRGKHDSKYTSKLSINSLGDINEYNDDYNNYDYYDDDPTNRNKGFLKKNSIILKSLYNLNEDYVNNNINNDAGSTSSHCRNNNAGHNDIPHFKNMRKYNSETNIPCSSKSNKATNKKLLNRLYNMLFRKKKKYRIKNMDAHSKKKVEKFIENIKFSKENNDDNRKIDEQNIEIQFDTLLDGIFDFLQDYDNSALNAFNNAAPDDDFVYFSNTAPCGVSLMDFPIYDMENMEADVGGKRNDGDNNDDDDNNDDGDNNDDGDNNDDDDNDDKSNNNNNNNNNGDPSSNNNNNNNNNNGDPSSNNNNNNNGDPSSNNNDDGDADEKRNDYISQYNLVLKDKSHNNNYYMTNEHDERKIKKQENIDILSKEEDNIASNYNNELQRTKRSLDFPEIIIKENYENPKDIIHISKKEEANEANNAKGHINLKNKKEHNNVVDNVNPCNKQNINEEDNNINNAIKTARIGIFNKNKINCRNKKASKFDKIKRFNDKINKDNHPLITNVENKNEEIDVLQNNEDKKQKILPIIKNENAKETGQKYENNDVYEEHNKANINNNVEKLYKDKNSHHIKNQYDKGNLAENNEVTPIYSKDYDADDEEYEHWHGHQRDNKATP
# modifications: bait human Fc-tagged dimer
# B3: 71 (protein)
# chain: EERYNFNMDKMLKITCHINLHLKKNPHFTITYKKNLQECIDSCKTNIYCTGIEFSRKRVEYTQIILKNNKKIILGYFKCKQFYFQNIYDYSSYNLDSYLNEHIENQINIKSTLTYTNFIMRNKPDIIYTCSIDRDPKYLLYKNYKLVECVIGKFCPGNNAPYMISCPINSATIIPASEDVNKCLCLKGYSYVGVTSYRCSLCDRGSYKNSVGNNKCDNCPLTFSTTHRGSTNIKDCSCTSGNYLTFD
# modifications: bait human Fc-tagged dimer
# B4: 57 (protein)
# chain: NDLCSCNLKVRNNWEHFLQVYQNNGNFKMEILEPECTIQKNLPSEEEKEEFIDFDRKELLLHDFVVIKNSQFTDEKTLELYLSKEENNKAYLMLTFYLGDLKLMIGHNSPYEISLILNVATVNKNMANCKNNAYNIVLLKTTDVFNTADLEILEGPIQFSLGKSSGAFRINVANFFLNNAWKAFTKDKISFLIKPEENCYTILENKINKPQLLIEKKTTFYSEWGEWSNCAMDCDHPDNVQIRERECIHPSGDCFKGDLKESRPCIIPLPPCNELFSHKDNS
# modifications: bait human Fc-tagged dimer
# B5: 36 (protein)
# chain: QDEKSVKNICVCDFTDKLNFLPLEKTKILCELKPQYGEDIKIIANKEYEINCMNNAKVFCPLKDTFINNANIKLYSPKLHFEIKDITHKGKNAALYYLKIDEEASDIFFSCSIKPKQVSGLLEGEVRVNLKKHINEEYSIFNEEEDVHVCDFSKGNLDITPSAGFYLKNSRNVACIYRVIPNKLFLIKLPKLDIVTEKLLPSIVNCLSEFSFINFALKHVQEGDNYISFNVIFGEFKKHFNLACSLDLSDFQQEPCNLGKTANIAFIFSK
# modifications: bait human Fc-tagged dimer
# B6: 88 (protein)
# chain: FENAIKKTKNQENNLALLPIKSTEEEKDDIKNGKDIKKEIDNDKENIKTNNAKDHSTYIKSYLNTNVNDGLKYLFIPSHNSFIKKYSVFNQINDGMLLNEKNDVKNNEDYKNVDYKNVNFLQYHFKELSNYNIANSIDILQEKEGHLDFVIIPHYTFLDYYKHLSYNSIYHKSSTYGKCIAVDAFIKKINEAYDKVKSKCNDIKNDLIATIKKLEHPYDINNKNDDSYRYDISEEIDDKSEETDDETEEVEDSIQDTDSNHAPSNKKKNDLMNRAFKKMMDEYNTKKKKLIKCIKNHENDFNKICMDMKNYGTNLFEQLSCYNNNFCNTNGIRYHYDEYIHKLILSVKSKNLNKDLSDMTNILQQSELLLTNLNKKMGSYIYIDTIKFIHKEMKHIFNRIEYHTKIINDKTKIIQDKIKLNIWRTFQKDELLKRILDMSNEYSLFITSDHLRQMLYNTFYSKEKHLNNIFHHLIYVLQMKFNDVPIKMEYFQTYKKNKPLTQ
# modifications: bait human Fc-tagged dimer
# B7: 70 (protein)
# chain: NTYIYLKQDSFVFSNEFPTVEEKNQALGENYEIVTLTTKDNHKFTCWYIKTKDSENKPIMLYFQGNGGYLEKYMNLFNLIIERVDVNIFSCSNRGCGSNIAKPSEEYFYKDAHVYIEYVKTKNPKHLFIFGSSMGAAVAIDTALKQHDHISGLIVQNAFTSLKELSRYSHPFLNYFLFDYDMIIRSKMDNEAKIKNIAVPTLFTLSEMDEKVPTSHTRTLFQLSASTNKQLYLSKGGTHPNILKNDDGSYHKAMKKFIVTAISIREKNIQKAVERNPNTPN
# modifications: bait human Fc-tagged dimer
# B8: 20 (protein)
# chain: DIIIVDSNKDIQGFDPNSVLNLAENVFNIFLDTKTNNADIKTVYSSIFSNSKVTIDGTCSSMKELIKGRSLKYLDELGTEEYVNSDDVFNFAIFVYTVNGQPDIIQQVYKKHPNYISYIITCKESELFDNIEDAKDNKNVFHTNP
# modifications: bait human Fc-tagged dimer
# B9: 55 (protein)
# chain: INVQIGNQKYSLCSNKIKKDLLDFYNTLGVSKSDKNLKDNIKKVNLYTKFRKRLYKDRLSIYANVAIKEKGEEVVPVKVVDEKENKENEEKTNILDQEIFTNFMQYNKNNFFCIDELGLDISIPFYKNSGFGANVVYQLPEMVYVNAYTNIYNTIIKGEFNSIDILKRISFFQFFDNFYLNAHYDFKSEKALLNLESKLYEYYNKHGDNIAFNNKIIVERNMHNEYDGSVCLSLKYNNNVFTPIFNFKDKTYEYVYDNLAANRKFSVKVDKERNVHFNYLSFDRVDESNKYFLFFNFIFSNPMQSIITLKREFIF
# modifications: bait human Fc-tagged dimer
# B10: 10 (protein)
# chain: FRKYDKNKNKILISHSINNNNNAIKNNNNNNNAIKNNNNNNNAIKNNNNNNNAFSATSFSSEKNKNKAYTNVLKKKNIYIREESNKATNIKEDEEKNKKINNNDKETNYAFLSLKFFPFILTSLLHTGINQIPRNTEIELYEFEKSPMIRHMLVAEERKN
# modifications: bait human Fc-tagged dimer
# B11: 1 (protein)
# chain: EVESSDSTSFLNLISGQSSSNSDDTVSSSDSRGVVASVSGTVDSDVSRTDSTGNVNSKNSELSETRQNSVEQNNNANSADNSIKIKSAFLKENVGVKITGPCDEGFGLVMVPHIIINVDTRNTDIQLGKKSSEINYGIKLRKKGKDEYEEKVGIDLLKNVCETGKNFKFVAYIKGDELIIKWKVIEEGNIPIDIKKFKIKRMSPPITSIQVFSSMSDEKSFVLENKNYVVTNNMPEKCEALATNCFLSGNIDIEKCYQCSLLVENDAKSDVCYNFISRENKEKLNEERFKVKGSTEYEESVESELKGAIDLLISSFYKSDGENGENVLISFEDLNSALEDDIINFCSLLKLVDLSGTFMNHQIGTTADAFNNIVKLLKEHKEEDEFVLRTKLRNPALCMKNVDDWVKSRCGLLTSDDSYVVIKKNSDTNGKNENNEANDEEYDGVIDLSTNENGNVKSIQFNDDIYCNDDYCNRWKNENNCISKIGVEDQGNCASSWAFASKLHFETLRCMKGYDHLGISALYLTNCAKGKISKRCTEGGNPAEFLEIVSNSGFLPTEFDYPYFYALVENSCPSGLNKWINLWEDVKLFDYKYEPNSIGSKGYSVYKSEMFKDNMDEYVKMIKSEIKNKGSVIAYINAQSVLTYDFNGKNILNMCGSKTTDHSINVIGYGHYKNKEGEEKSYWLVRNSWGYYWGDEGNFKVDMYGPSNCNYHFINTVLVFNIDIPMMNNNENNKKGLYNYFPKYTHEFYHNFYDQNFGSDNKISLINSNGANKNDVNNAYTVHGQSGETEVQPSQLRSTANQDSNRGAVTSDPLRTQPETTSTSVKKMDVFQVLKHVKNSKIKVGLIKYDNDDEIGAHHSCTRAYSFDPEKYDECVEFCRKNWEQCKDKPSPGFCLTKLDESKGCFFCYV
# modifications: bait human Fc-tagged dimer
# B12: 47 (protein)
# chain: NNIAHKEDDCGASELAIKKLQELKKFELDILKDFIKKDTDHTDMYKRYHCISSDFLKNTKQEDKKEDNYAKKEDKKDIENSANYIINNKNEKISFINKIISFVGMWNYNKYGNNIQESKNKINIYNNNNNKAENELLYNKEDYTNHIPTNENPNSYMQLSAFNLAKKSMFLGGKDNAAQNFEVGNYGSFYMIFGARNTDYPWACSCDTLQLEEYKEKKRSYVLCSNQLDMSIQNSDLFCNPKN
# modifications: bait human Fc-tagged dimer
# B13: 79 (protein)
# chain: YLEQIKNGISGHYTEDHNIKNNNCISFSDYERSIKNFAISSHAENNYDNIINEYKKIKDINNNINILSSVHRKGRILYDSFLEINKLENDKKEKHEKEDEYEDNDESFLETEEYEDNEDEKYNKDEDDYAESFIETDEYEDNEDDKYNKDEDDYSESFIETDEYDDNEEEQYNKDEDDYTDSFIETDHYENNDDKNEEEEEYNDQDNDYGYNFLETDEYDDSEEYDYDDKEYGESFLEKEEGEEMKDEEMKDEEMKDVEMKDEEMKDEEMKYDEMKNEEMKYDEMKDEVMKDEEMKDEVMKDEEMKDEQMKYEEFKNEESKNEESKNEESKNEESKNEEFKNEESKNEEFKNEEFKNEDMSYDEYMGYKKKEEDESYNTFNGAKKNNAANSFLEKDLQGDSDDELHSTFYSKNVDKENYDDKNIFYGYSDNDDESFLETDSYEEYEDEDKDVEDEYEESFLQNDEKKMVFYDLYKPEENEAYYEKKQKKEEKEEKEEKEQSLNKQNDMEDQEDNEEYKFEEENKEDLLDVQQDEELPSEGKQKVKGKSFDNEHLNEIQNVADVHAFIQKDMKYLDDLIDEEQTIKDAVKKSAYKGNKKLGNNKKSQMILEEEPEENFEEDADEELNKLMEQEKNIVDKEIKNSKANKANKKLQFNNANKQNKMYMKNEYNNKAKNNKNNKFEQQNYDESYMDDDYEQNEEFNDNNQAEDMKETNELDKINDELLTDQGPNEDTLLENNNKIFDNKFVAHKKREKSISPHSYQKVSTKVQNKEDMENKEEKQLINDEAAMTAEELVELENTEDVNTPTMVETEEIDSDENGNKAS
# modifications: bait human Fc-tagged dimer
# Biological target: FGFR4 ectodomain (Homo sapiens, UniProt P22455)
# Test: AVEXIS normalised luminescence
row,Binder,binding score
1,B1,0.753
2,B2,1.23
3,B3,1
4,B4,0.899
5,B5,0.937
6,B6,1.03
7,B7,0.951
8,B8,1.16
9,B9,0.922
10,B10,1.56
11,B11,1.25
12,B12,0.93
13,B13,1.06
